According to patent publication US20240166750A1 (published 2024):
Residue numbers refer to the chain shown, from its start. Names and notes keep the numbering of the source. Blank lines part the entries; values can stand above or below the binder they belong to.

Target: Recombinant human FcγRIIIa-V158 (human, UniProt P08637 17-208)
Test: SPR; -kif

Chain of Recombinant human FcγRIIIa-V158 (P08637 17-208 F176V): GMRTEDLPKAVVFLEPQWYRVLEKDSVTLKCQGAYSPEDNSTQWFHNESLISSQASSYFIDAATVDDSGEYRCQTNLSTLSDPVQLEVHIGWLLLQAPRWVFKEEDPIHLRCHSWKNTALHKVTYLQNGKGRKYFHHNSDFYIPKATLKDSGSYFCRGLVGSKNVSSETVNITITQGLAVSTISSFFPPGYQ

Kd: 12.3 nM
B1: human IgG1 antibody specific for protein 4, S239D/I332E + T256D/T307Q, -Kif (antibody)
chain: ASTKGPSVFPLAPSSKSTSGGTAALGCLVKDYFPEPVTVSWNSGALTSGVHTFPAVLQSSGLYSLSSVVTVPSSSLGTQTYICNVNHKPSNTKVDKKVEPKSCDKTHTCPPCPAPELLGGPDVFLFPPKPKDTLMISRDPEVTCVVVDVSHEDPEVKFNWYVDGVEVHNAKTKPREEQYNSTYRVVSVLQVLHQDWLNGKEYKCKVSNKALPAPEEKTISKAKGQPREPQVYTLPPSRDELTKNQVSLTCLVKGFYPSDIAVEWESNGQPENNYKTTPPVLDSDGSFFLYSKLTVDKSRWQQGNVFSCSVMHEALHNHYTQKSLSLSPGK

Kd: 410 nM
B2: human IgG1 antibody specific for protein 4, T256D/T307Q + R292C/V302C, -Kif (antibody)
chain: B1 chain with D122S, R175C, V185C, E215I

Kd: 87.5 nM
B3: human IgG1 antibody specific for protein 4, S239D + T256D/T307Q + R292C/V302C, -Kif (antibody)
chain: B1 chain with R175C, V185C, E215I
